Assay results reported in a protein production outcome set (Wang et al. 2014).

experiment: label from the status in PepcDB records

Row | Sequence | protein production
1 | MSMNNSKQLVSPAAALLSNTTCQTENRLSVFFSVIFMTVGILSNSLAIAILMKAYQRFRQKSKASFLLLASGLVITDFFGHLINGAIAVFVYASDKEWIRFDQSNVLCSIFGICMVFSGLCPLLLGSVMAIERCIGVTKPIFHSTKITSKHVKMMLSGVCLFAVFIALLPILGHRDYKIQASRTWCFYNTEDIKDWEDRFYLLLFSFLGLLALGVSLLCNAITGITLLRVKFKSQQHRQGRSHHLEMVIQLLAIMCVSCICWSPFLGYRIILNGKEKYKVYEEQSDFLHRLQWPTLE | failed
2 | MSMSTSTEVIAHHWAFAIFLIVAIGLCCLMLVGGWFLGGRARARSKNVPFESGIDSVGSARLRLSAKFYLVAMFFVIFDVEALYLFAWSTSIRESGWVGFVEAAIFIFVLLAGLVYLVRIGALDWTPARSRRERMNPETNSIANRQR | failed
3 | MSMVLSFLKKFVENHVMSRHTVAVTLFLTDMAVILGTAIGVGLLRHAFDGYLDPTHYLRLLPFLLLFPAASFAMGLYQSVPLPPPCELKRLSLATCCTYLAIAIFIFFTRGGELYSRLTFALAGLVSLVAVPVARHLVRQRMARHRGWAAPALLFGKPHHVQPLAHILLSSPSLGLEPVAIVSAEHSTCHDFGCLPAFDAETTRQYAAGHPEAYAIVVMESYDEADRAHLVEHLSRLFCSVILLRSSTMSTGNIWLSPIEIGGLPGLMVRQNLLDPRRLTVKRTLDLIATTLALPLILPVMAVIALCIRLETPGPALFTQRRIGRDGYHFDILKFRTMYNDADTRLAECLEQSPELDAEWRRDHKLRCDPRVTRVGAFLRKTSLDELPQLWNVLRGDMSLVGPRPIVDSEVQRYDAAFATYTRVRPGITGLWQVSGRNNLSYPERVQRDMYYISNWSVWFDIWIIARTIPVVLHRDGAY | failed
4 | MSNALATLASPADDIAFYEERLRAAMLTGDLKGLETLLADDLAFVDHTGCVKTKQTHLEPYRAGLLKLSRLDLSDAVVRAAGEDGRVVVVRAVTAGVYDGEAFTETLRFTRIWRRTQGPAGWKLVAGHCSVIL | not failed
5 | MSNDSPQLPDFLLAGRYRLHRLIGAGGMGRVWEGVDELLDRPVAIKELTINEHLPPQEIEILRARMLREARSAAQLSHPSIITVFDVVEKDGFPWIVMELVHGKSLSEIIKQEGAISPERAANLGLQVAAALSVAHQRGIVHRDIKPGNVLVARGDRAVLTDFGIAYLEGSSRLTRTGSLLGSPSYLAPEQARGEPASPAADMWALGTTLYAALHGAPPFQRATPMATLTAVVVDEVPPPVKAGPLRPLLEQLLNKDPQKRPTVHEVVEELQRVVMSFPPQSSSASSTGTHTLQEEASPAPAEVSVAKPAADTSALPLSSPAEPGKRNSTLATVGLVALALCVVVAVITAVVLFVPAGGNSRADGEQPAAETSQSSEETGQAEEPEPTTSAEAAEQGVGEDDEDSEEEAEDDDYSGPPLVRHEDPTGFSLDVPEGWSVDRRGSSVFFRNPEGGYLQVDQTDSPNPDAKKDWEAQERGAAGRFSNYSLIDIRYSDHPSMERYVTASDWEFTFTINGQRMHAVNRGFHTEKKGYALFLVYPADGWEETGAPLLDRMSESFEPAA | failed
6 | MSNENKTIHDFELNLICDFFSNMERQGPGSPEVTLKALSFIDNLTEKSLIADIGCGTGGQTMVLAGHVTGQVTGLDFLSGFIDIFNRNARQSGLQNRVTGIVGSMDDLPFRNEELDLIWSEGAIYNIGFERGLNEWRKYLKKGGYLAVSECSWFTDERPAEINDFWMDAYPEIDTIPNQVAKIHKAGYLPVATFILPENCWTDHYFTPKVAAQKIFLTKYAGNKIAEEFSMLQSIEEELYHKYKEYYGYTFFIAKKIRLLEHHHHHH | not failed
7 | MSNGNKSEKKTLILALVAGMCGDALLSWLTMSEVSFSIFPLIALVLAVQALYQEYLNNPVSEDIPLVGLACFFVGAFGHSAFIKAQYPEAGSNFFAIMVSMILLAWIGKKLGFMEKKTSAE | failed
8 | MSNLPFHQFCGTEGYVASRALQDVVNVAIALERPLLLKGEPGTGKTLLAYHIAKALGMEIILWNVKSTTKARDGLYTYDTVQRLNDARFGDGDVRDIRHYIKLGPLGRAFGSAERVVLLIDEVDKADIEFPNDLLFELDEMRFHVLETDEWVSAAHRPVVIVTSNSEKELPDAFLRRCVFHYIDFPDETQMRAIIDVHFPDLPAELMRSACKVFYGLREVPGLRKRPSTSELLDWIRVLLASGARLPEEETPALQSVPFLGALVKIQEDADILAHHASRSADVRTAGRRFFRLEHHHHHH | failed
9 | MSNNTKRVGSQTIELKSKPRIIATYSVVGPREGQGPLKEYFDKILQDDCNGCESFEKAESSLMITAIEGVIKKGNVKEEDVDYLFSGDLLNQLTSTNFVAREFKIPFFGVYGACSTMAESLSLSSMIMDGDFAKYAIASTSSHFSSAERQFRFPLEYGCQRKEYSQWTVTGSGAMLLGKSGDYPYVTHVTTGIVKDYGIKDADNMGAAMAPAAVDTIYKHFVDTGRKPEDYDVIATGDLGAVGKKLTEELLKEYGYDISKVYIDCGEKIFDNEKQGTFAGGSGCGCSAVVACGYLYRMLKEKKLKRVLLVSTGALLSSTSALQGESIPGIAHAVAIEYILEHHHHHH | not failed
10 | MSNVRIRQATTDDLIGIFEAHRNSVERLCTSEYSDQQIRMWLDGRSPETYREAVEKGSLWLAEGEQIEGFVELDGNEVSKLFIRGDVARRGLGSRLLEVALARLRASGASSAYLEATLTAEGFYAYHGFQKIGEGTFSRGNSPVSIEIIKMERPL | failed
11 | MSNVSSETVNLNNTSIVHMNMSNVTKLTASNYIMWSRQVHALLHGYGLTQYLDATKAAPAREITVNDVASVNPEYEAWSRQDQLIFSALIGTLSLTVQPTVSRAATSADVWATLAGTYAKPSRGHIKQLQHQIKQWKKDTRTIDEYVQGFINRFDQLALIGKIIDHEDQVDYILGGLPEDYKPIVDQMEGRDTPPNGCLTNSCDEDGCFIQMALNSV | failed
12 | MSNVVVIAVVLIVASLTGHVSAQMDMSPSSGPSGAPDCMANLMNMTGCLSYVTVGEGGGAAKPDKTCCPALAGLVESSPQCLCYLLSGDMAAQLGIKIDKAKALKLPGVCGVITPDPSLCSLFGIPVGAPVAMGDEGASPAYAPGSMSGAESPGGFGSGPSASRGSDAPSSAPYSLFLNLIIFPLAFAFYIFC | failed
13 | MSPCGPLNLSLAGEATTCAAPWVPNTSAVPPSGASPALPIFSMTLGAVSNLLALALLAQAAGRLRRRRSAATFLLFVASLLATDLAGHVIPGALVLRLYTAGRAPAGGACHFLGGCMVFFGLCPLLLGCGMAVERCVGVTRPLLHAARVSVARARLALAAVAAVALAVALLPLARVGRYELQYPGTWCFIGLGPPGGWRQALLAGLFASLGLVALLAALVCNTLSGLALLRARWRRRSRRPPPASGPDSRRRWGAHGPRSASASSASSIASASTFFGGSRSSGSARRARAHDVEMVGQLVGIMVVSCICWSPMLVLVALAVGGWSSTSLQRPLFLAVRLASWNQILDPWVYILLRQAVLRQLLRLLPPRAGAKGGPAGLGLTPSAWEASSLRSSRHSGLSHF | failed
14 | MSPDLIPHQKSLSPSYLVFCDVDETLIRCKSGPEFLRHYFEFRHGAEGARRTEELLADLYARLARGLPRDEANREYHRAWRRCPVDEVEDRARHWYRERSRAADFYITATVDALRRHRAEGGAVALVSGSFPPLLPLVAEEVGAQYVLGARLERCGRVLTGELLGLPAIGDGKRVLARELLARHPHIDPADCYAYGDHPSDLPMLHMVGHATLVTPDGTHAPVKPAALT | failed
15 | MSPDSCPLVKNILLLDSEGKRVAVKYYSDDWPTNAAKLSFEKYVFSKTSKTNARTEAEITLLDSNIIVYKFAQDLHFFVTGGENENELILASVLQGFFDAVALLLRSNVEKMEALENLDLIFLCLDEMVDQGVVLETDPNVIAGKVAMQSTEASGSLSEQTLTQALATAREHLARSLLT | failed
16 | MSPFESMEKFPHLLVLDFDGVLCDGLQEYFQTSCQVCRQIWPDLPREKLDRQRDNFYFLRPVIETGWEMPLLLKALATGVEPAAIEAAWPAVAQTLQRQEQIGKSQLAPVLDQVRDNYIHNDLAYWLGLHHFYPGVIGQLNHWLQSPYPQWLYVVTTKEGRFVQQLLKNQKVDFPLGQIIGKEIKQPKFKTLEQLRVKHQCDGDRLWFVEDMLT | failed
